Target: T1, 14-3-3ζ (residues 1-245, 14-3-3ζ-strep, chain of the 14-3-3ζ/ERα^(LBD_F) complex) (human, UniProt P63104 1-245)
T1 sequence: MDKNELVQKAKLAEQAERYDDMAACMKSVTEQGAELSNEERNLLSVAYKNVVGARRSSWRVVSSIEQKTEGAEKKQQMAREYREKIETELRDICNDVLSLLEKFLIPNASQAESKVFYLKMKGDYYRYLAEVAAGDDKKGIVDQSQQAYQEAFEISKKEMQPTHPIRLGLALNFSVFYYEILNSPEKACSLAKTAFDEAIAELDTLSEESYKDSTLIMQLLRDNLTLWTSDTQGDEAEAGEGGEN
Assay: mass photometry

B1: ERα^(LBD_F) (ERα residues 302-595, S305A, F591R, P592R, phosphorylated T594) (domain or fragment)
chain: KKNALALSLTADQMVSALLDAEPPILYSEYDPTRPFSEASMMGLLTNLADRELVHMINWAKRVPGFVDLTLHDQVHLLECAWLEILMIGLVWRSMEHPGKLLFAPNLLLDRNQGKCVEGMVEIFDMLLATSSRFRMMNLQGEEFVCLKSIILLNSGVYTFLSSTLKSLEEKDHIHRVLDKITDTLIHLMAKAGLTLQQQHQRLAQLLLILSHIRHMSNKGMEHLYSMKCKNVVPLYDLLLEMLDAHRLHAPTSRGGASVEETDQSHLATAGSTSSHSLQKYYITGEAEGRRATV
modifications: phosphorylated T594 (PKA co-expression)
stoichiometry N: 1 ERα(LBD_F) per 14-3-3ζ (2:2)

— article doi:10.1101/2025.11.17.688825 (bioRxiv, 2025)
